Source: paper PMC12547303
Numbering of substitutions follows the chain as printed.

Tests used:
[1] = target: T1, CNNM2-H523K/S269P (mouse) (UniProt Q3TWN3)
T1 sequence: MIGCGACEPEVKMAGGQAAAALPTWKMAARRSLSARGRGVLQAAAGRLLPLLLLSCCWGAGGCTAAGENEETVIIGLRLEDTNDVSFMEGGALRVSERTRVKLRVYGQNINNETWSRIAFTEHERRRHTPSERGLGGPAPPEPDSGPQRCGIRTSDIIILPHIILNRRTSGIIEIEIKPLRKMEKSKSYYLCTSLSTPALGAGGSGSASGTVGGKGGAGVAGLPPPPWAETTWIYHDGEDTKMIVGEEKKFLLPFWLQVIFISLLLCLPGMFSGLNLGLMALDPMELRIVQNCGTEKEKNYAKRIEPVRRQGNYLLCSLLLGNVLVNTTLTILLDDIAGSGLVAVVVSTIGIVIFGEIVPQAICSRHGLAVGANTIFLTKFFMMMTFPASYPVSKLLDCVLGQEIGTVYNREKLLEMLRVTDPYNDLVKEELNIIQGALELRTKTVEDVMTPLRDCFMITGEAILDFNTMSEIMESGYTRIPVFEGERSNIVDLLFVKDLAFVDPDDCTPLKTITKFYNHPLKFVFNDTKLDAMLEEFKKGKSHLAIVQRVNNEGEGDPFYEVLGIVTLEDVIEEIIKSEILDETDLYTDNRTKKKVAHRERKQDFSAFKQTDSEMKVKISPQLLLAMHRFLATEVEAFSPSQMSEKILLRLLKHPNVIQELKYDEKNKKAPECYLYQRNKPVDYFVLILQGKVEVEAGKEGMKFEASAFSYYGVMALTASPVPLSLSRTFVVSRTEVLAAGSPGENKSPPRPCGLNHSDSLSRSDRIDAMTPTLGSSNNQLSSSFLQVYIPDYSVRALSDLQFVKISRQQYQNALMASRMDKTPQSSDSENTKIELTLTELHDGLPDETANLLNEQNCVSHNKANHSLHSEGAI

[2] = target: T2, CNNM2-S269P (mouse) (UniProt Q3TWN3)
T2 sequence: T1 sequence with K523H

[3] = target: T3, FLAG-tagged CNNM2 lacking the CBS-pair domain, CNNM2-ΔCBS(469–578) (mouse) (UniProt Q3TWN3)
T3 sequence: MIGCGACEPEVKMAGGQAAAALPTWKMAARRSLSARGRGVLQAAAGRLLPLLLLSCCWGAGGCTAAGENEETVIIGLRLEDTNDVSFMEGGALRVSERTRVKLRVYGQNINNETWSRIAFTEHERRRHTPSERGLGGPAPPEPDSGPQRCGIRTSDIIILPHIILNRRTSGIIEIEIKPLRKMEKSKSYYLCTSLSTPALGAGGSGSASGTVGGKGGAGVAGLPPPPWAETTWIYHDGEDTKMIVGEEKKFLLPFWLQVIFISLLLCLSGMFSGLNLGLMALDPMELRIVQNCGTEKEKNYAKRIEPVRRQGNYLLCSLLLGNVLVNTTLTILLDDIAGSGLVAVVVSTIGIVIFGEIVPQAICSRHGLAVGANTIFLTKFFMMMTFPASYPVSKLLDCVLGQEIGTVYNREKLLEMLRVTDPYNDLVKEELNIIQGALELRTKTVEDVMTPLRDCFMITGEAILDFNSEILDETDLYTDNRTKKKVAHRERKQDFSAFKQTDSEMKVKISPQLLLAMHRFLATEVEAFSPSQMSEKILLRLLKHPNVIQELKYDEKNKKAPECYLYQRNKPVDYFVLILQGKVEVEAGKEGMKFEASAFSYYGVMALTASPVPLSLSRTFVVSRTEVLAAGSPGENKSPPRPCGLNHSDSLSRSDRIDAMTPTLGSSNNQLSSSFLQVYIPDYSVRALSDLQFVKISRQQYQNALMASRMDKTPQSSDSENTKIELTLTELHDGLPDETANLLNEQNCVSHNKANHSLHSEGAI

B1: Myc-DDK tagged ARL15 (natural protein)
chain: MSDLRITEAFLYMDYLCFRALCCKGPPPARPEYDLVCIGLTGSGKTSLLSKLCSESPDNVVSTTGFSIKAVPFQNAILNVKELGGADNIRKYWSRYYQGSQGVIFVLDSASSEDDLEAARNELHSALQHPQLCTLPFLILANHQDKPAARSVQEIKKYFELEPLARGKRWILQPCSLDDMDALKDSFSQLINLLEEKDHEAVRM
An outward TRPM7 current density at +100 mV in 293-M7-ΔCNNM3/4 cells with CNNM2-H523K/S269P, without vs with ARL15 (the value is with ARL15); not different [1] of 294, an outward TRPM7 current density at +100 mV in 293-M7-ΔCNNM3/4 cells with CNNM2-S269P, without vs with ARL15 (the value is with ARL15); marked reduction [2] of 123 and an outward TRPM7 current density at +100 mV in 293-M7-ΔCNNM3/4 cells with CNNM2-ΔCBS, without vs with ARL15 (the value is with ARL15); not different [3] of 330 were found for B1 in this work.
